Source: paper PMC11714219

B1: Estrogen receptor alpha, full length, ECFP-tagged, as in the ER βα FL biosensors with the linker [not stated] / Estrogen receptor beta (ER β), full length, mNeonGreen-tagged, as in the ER βα FL FRET biosensor [not stated] (parent)
chain 1: MTMTLHTKASGMALLHQIQGNELEPLNRPQLKIPLERPLGEVYLDSSKPAVYNYPEGAAYEFNAAAAANAQVYGQTGLPYGPGSEAAAFGSNGLGGFPPLNSVSPSPLMLLHPPPQLSPFLQPHGQQVPYYLENEPSGYTVREAGPPAFYRPNSDNRRQGGRERLASTNDKGSMAMESAKETRYCAVCNDYASGYHYGVWSCEGCKAFFKRSIQGHNDYMCPATNQCTIDKNRRKSCQACRLRKCYEVGMMKGGIRKDRRGGRMLKHKRQRDDGEGRGEVGSAGDMRAANLWPSPLMIKRSKKNSLALSLTADQMVSALLDAEPPILYSEYDPTRPFSEASMMGLLTNLADRELVHMINWAKRVPGFVDLTLHDQVHLLECAWLEILMIGLVWRSMEHPGKLLFAPNLLLDRNQGKCVEGMVEIFDMLLATSSRFRMMNLQGEEFVCLKSIILLNSGVYTFLSSTLKSLEEKDHIHRVLDKITDTLIHLMAKAGLTLQQQHQRLAQLLLILSHIRHMSNKGMEHLYSMKCKNVVPLYDLLLEMLDAHRLHAPTSRGGASVEETDQSHLATAGSTSSHSLQKYYITGEAEGFPATV
chain 2: MDIKNSPSSLNSPSSYNCSQSILPLEHGSIYIPSSYVDSHHEYPAMTFYSPAVMNYSIPSNVTNLEGGPGRQTTSPNVLWPTPGHLSPLVVHRQLSHLYAEPQKSPWCEARSLEHTLPVNRETLKRKVSGNRCASPVTGPGSKRDAHFCAVCSDYASGYHYGVWSCEGCKAFFKRSIQGHNDYICPATNQCTIDKNRRKSCQACRLRKCYEVGMVKCGSRRERCGYRLVRRQRSADEQLHCAGKAKRSGGHAPRVRELLLDALSPEQLVLTLLEAEPPHVLISRPSAPFTEASMMMSLTKLADKELVHMISWAKKIPGFVELSLFDQVRLLESCWMEVLMMGLMWRSIDHPGKLIFAPDLVLDRDEGKCVEGILEIFDMLLATTSRFRELKLQHKEYLCVKAMILLNSSMYPLVTATQDADSSRKLAHLLNAVTDALVWVIAKSGISSQQQSMRLANLLMLLSHVRHASNKGMEHLLNMKCKNVVPVYDLLLEMLNAHVLRGCKSSITGSECSPAEDSKSKEGSQNPQSQ

Variants of: B1
Experiment: live-cell FRET biosensor imaging (ER βα heterodimerization, FRET/ECFP emission ratio)
Conditions: with Estrogen receptor beta (ER β), 1 µM 17β-estradiol, value read at the end of the time course (30 min after E2), α mutant n = 12, WT n = 24, read off a plot, scale: R/R0

| response | Variant |
| --- | --- |
| 1.07 | chain 1 MTMTLHTKASGMALLHQIQGNELEPLNRPQLKIPLERPLGEVYLDSSKPAVYNYPEGAAYEFNAAAAANAQVYGQTGLPYGPGSEAAAFGSNGLGGFPPLNSVSPSPLMLLHPPPQLSPFLQPHGQQVPYYLENEPSGYTVREAGPPAFYRPNSDNRRQGGRERLASTNDKGSMAMESAKETRYCAVCNDYASGYHYGVWSCEGCKAFFKRSIQGHNDYMCPATNQCTIDKNRRKSCQACRLRKCYEVGMMKGGIRKDRRGGRMLKHKRQRDDGEGRGEVGSAGDMRAANLWPSPLMIKRSKKNSLALSLTADQMVSALLDAEPPILYSEYDPTRPFSEASMMGLLTNLADRELVHMINWAKRVPGFVDLTLHDQVHLLECAWLEILMIGLVWRSMEHPGKLLFAPNLLLDRNQGKCVEGMVEIFDMLLATSSRFRMMNLQGEEFVCLKSIILLNSGVYTFLSSTLKSLEEKDHIHRVLDKITDTLIHLMAKAGLTLQQQHQRLAQRLLILSHIRHMSNKGMEHLYSMKCKNVVPLYDLLLEMLDAHRLHAPTSRGGASVEETDQSHLATAGSTSSHSLQKYYITGEAEGFPATV [chain 1 L507R] |
